Results on six molecules are retold here after PMC9273042 (Science Immunology, 2022).

Holding throughout (conditions): both partners purified
For assay [1], the target named is soluble RBD (WA1/2020 variant) (SARS-CoV-2, WA1/2020, UniProt P0DTC2). Kind of assay: SPR.
Assay [2] addresses Trimer Spike (soluble, WA1/2020 variant) (SARS-CoV-2, WA1/2020, UniProt P0DTC2). Kind of assay: SPR.
For another assay, the target named is SARS-CoV-2 S 6P trimer (SARS-CoV-2, Wuhan-Hu-1/WA1 type, S-6P, stabilised). Put plainly: cryo-EM structure.
Assay [3] deals with T1, RBD, REF variant (Wuhan-1) (SARS-CoV-2, UniProt P0DTC2).
T1 construct: source: bought: SinoBio
Put plainly: ELISA.

The next assay deals with T2, RBD, UK variant (Alpha) (SARS-CoV-2, UniProt P0DTC2).
T2 construct: source: bought: SinoBio
Kind of assay: ELISA.

The target of a further assay is T3, RBD, SA variant (Beta) (SARS-CoV-2, UniProt P0DTC2).
T3 construct: source: bought: SinoBio
Kind of assay: ELISA.

B1: IMM20190 (antibody, V domains shown)
VH: EVQLVESGGGLVQPGGSLRLSCSASGFTVSSNYMSWVRQAPRKGLEWVSVIYAGGSTFYADSVKGRFTISRDNSKNTLLLQMNSLRAEDTAVYYCARDRGGYLDYWGQGTLVTVSS
VL: DIQMTQSPSSLSASVGDRVTITCRASQGISNYLAWYQQKPGKVPKLLIYAASTLQSGVPSRFSGSGSGTDFTLTISSLQPEDVATYYCQKYNSAPGLTFGGGTKVEIK
As for B1, in assay [1], the Kd is 1.87 nM, the koff came to 0.000376 s⁻¹ and the on-rate constant (kon) is 202000 M⁻¹ s⁻¹. In assay [2], this molecule displayed an equilibrium dissociation constant (Kd) of 6.59 nM, a dissociation rate constant (koff) of 0.000195 s⁻¹ and a kon of 29500 M⁻¹ s⁻¹.

B2: IMM20190 Fab (Fab, V domains shown)
VH: B1 VH
VL: B1 VL
notes: Fab of m2
Take B2: in the assay with SARS-CoV-2 S 6P trimer, the “stoichiometry N” value was 3 Fab:Trimer.

B3: IMM20184 Fab (Fab, V domains shown)
VH: EVQLVESGGGLVQPGGSLRLSCSASGFTFSSFWMSWVRQAPGKGLEWVATIREDGSEKYYVDSVKGRFSISRDNAKNSLYLQMNSLRAEDTAVYYCARSKWLRGSFDYWGQGTLVTVSS
VL: NFMLTQPHSVSESPGKTVTISCTRRSGSIASNYVQWYQQRPGSAPTTVIYEDNQRPSGVPDRFSGSIDSSSNSASLTISGLQTEDEADYYCQSYDSSNPPGASWVFGGGTKLTVL
notes: Fab of m1
On to B3, for which the “stoichiometry N” value with SARS-CoV-2 S 6P trimer is 3 Fab:Trimer.

B4: IMM20184 (antibody, V domains shown)
VH: B3 VH
VL: B3 VL
In assay [1], B4 gave a Kd of 2.2 nM, an off-rate (koff) of 0.00131 s⁻¹ and a kon of 595000 M⁻¹ s⁻¹. In assay [2], binding was put at a Kd of 7.35 nM, the koff was determined as 0.000229 s⁻¹ and the kon was determined as 31200 M⁻¹ s⁻¹.

B5: IMM20253 (antibody, V domains shown)
VH: QVQLVESGGGVVQPGRSLRLSCTASGFTFSTYGMHWVRQAPGKGLEWVAVISYDGSSKHYAESVKGRFTISRDNSNNTLYLQMNRLRAEDTAVYYCARDGQPPGWGNYFDYWGQGTLVTVAS
VL: SYVLTQPPSVSVAPGKTARITCGGNGIGSKSVYWYQQKPGQAPEVVVYDDSDRPSGIPERFSGSNSGNTATLTISRVEAGDEADYYCQVWDSSSDPWVFGGGTKLTVL
As to B5, the “percent inhibition of ACE2 binding” value in assay [3] is at most 40%; with RBD, UK variant (Alpha), at most 40%; with RBD, SA variant (Beta), at most 40%. The equilibrium dissociation constant (Kd) worked out at 0.157 nM in assay [1] and 1.44 nM in assay [2]. For the same molecule, the dissociation rate constant (koff) in assay [1] was found to be 0.000218 s⁻¹; in assay [2] it was 0.000117 s⁻¹. For the same molecule, the kon in assay [1] is 1.39e+06 M⁻¹ s⁻¹; in assay [2], 81300 M⁻¹ s⁻¹.

B6: IMM20253 Fab (Fab, V domains shown)
VH: B5 VH
VL: B5 VL
notes: Fab of m3
As to B6, the “stoichiometry N” value with SARS-CoV-2 S 6P trimer is 1 Fab:Trimer.
